The values that follow are results of earlier work, collected in patent US20250177452A1, “USE OF IMMUNOSUPPRESSION TO ENABLE ENGRAFTMENT OF HEMATOPOIETIC STEM CELLS” (The Board of Trustees of the Leland Stanford Junior …, priority 2022, published 2025).

One series addresses T1, CD52 (Homo sapiens, UniProt P31358).
T1 construct: CD52 is expressed on 95% of peripheral blood lymphocytes, monocytes and thymocytes; host or cells: endogenous CD52 on peripheral blood lymphocytes in vivo
The following applies: single injection.

The conditions of series [1]: in vivo.

As for “Alemtuzumab: recombinant humanized monoclonal antibody against CD52”, the depletion of lymphocytes result in the series with CD52 is “over 99%”.

B1: IMGN901: CD56-targeting antibody-drug conjugate delivering the cytotoxic maytansinoid DM1 (conjugate, chains of the INN, looked up)
VH: QVQLVESGGGVVQPGRSLRLSCAASGFTFSSFGMHWVRQAPGKGLEWVAYISSGSFTIYYADSVKGRFTISRDNSKNTLYLQMNSLRAEDTAVYYCARMRKGYAMDYWGQGTLVTVSS
VL: DVVMTQSPLSLPVTLGQPASISCRSSQIIIHSDGNTYLEWFQQRPGQSPRRLIYKVSNRFSGVPDRFSGSGSGTDFTLKISRVEAEDVGVYYCFQGSHVPHTFGQGTKVEIK
modifications: DM1 maytansinoid payload
notes: CD56-targeting antibody-drug conjugate delivering the cytotoxic maytansinoid DM1
Turning to B1, the “maximum tolerated dose (MTD)” value in series [1] is “about 75 mg/m^2”.
